Molecular target: T1, hNE (Homo sapiens, UniProt P08246)
T1 sequence (P08246 30-267): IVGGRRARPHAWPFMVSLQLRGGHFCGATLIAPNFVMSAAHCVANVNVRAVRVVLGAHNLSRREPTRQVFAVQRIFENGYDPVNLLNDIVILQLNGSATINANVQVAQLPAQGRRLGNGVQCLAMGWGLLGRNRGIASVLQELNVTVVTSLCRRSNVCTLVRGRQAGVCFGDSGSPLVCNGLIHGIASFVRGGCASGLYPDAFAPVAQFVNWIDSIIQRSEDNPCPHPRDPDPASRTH
Assay: Resistance to oxidative inactivation by Chloramine-T, residual hNE-inhibition activity
Assay type: physicochemical
Conditions: 20 minutes at RT
Description: At the end of the incubation period, the oxidation reactions were quenched by adding methionine to a final concentration of 4 mM. After a further 10 minute incubation, the quenched reactions were diluted and assayed for residual inhibitor activity in our standard hNE-inhibition assay.
Inhibitors were incubated in the presence of Chloramine-T at the molar ratios indicated for 20 minutes at RT. Oxidation reactions were quenched by adding methionine to a final concentration of 4 mM. Residual hNE-inhibition activity remaining in the quenched reactions is shown as a percentage of the activity observed with no added oxidant.

B1: Secretory Leucocyte Protease Inhibitor (protein)
chain: SGKSFKAGVCPPKKSAQCLRYKKPECQSDWQCPGKKRCCPDTCGIKCLDPVDTPNPTRRKPGKCPVTYGQCLMLNPPNFCEMDGQCKRDLKCCMGMCGKSCVSPVKA
Percent Residual hNE-Inhibitory Activity (Molar Ratio CHL-T:Inhibitor 0): 100%
Percent Residual hNE-Inhibitory Activity (Molar Ratio CHL-T:Inhibitor 0.29): 93%
Percent Residual hNE-Inhibitory Activity (Molar Ratio CHL-T:Inhibitor 1.2): 65%
Percent Residual hNE-Inhibitory Activity (Molar Ratio CHL-T:Inhibitor 2.4): 48%
Percent Residual hNE-Inhibitory Activity (Molar Ratio CHL-T:Inhibitor 5.9): 18%
Percent Residual hNE-Inhibitory Activity (Molar Ratio CHL-T:Inhibitor 12.): 15%
Percent Residual hNE-Inhibitory Activity (Molar Ratio CHL-T:Inhibitor .59): 82%
Percent Residual hNE-Inhibitory Activity (Molar Ratio CHL-T:Inhibitor .88): 73%

Source: patent US20060134087A1, “ITI-D1 Kunitz domain mutants as hNE inhibitors” (Dyax Corp., priority 1988, published 2006)
